Experimental data: article PMC4987164 (Comparative biochemistry and physiology. Part D, Genomics & …, 2016)
Entries after “also recorded” stand apart in the source; their conditions may differ. Read-outs that look alike come from different tables or passages of the source.

What was measured:
[1] = biological target: ESR1 Ligand-binding domain tagged with glutathione-S-transferase (human); experiment: AlphaScreen or HTRF
SRC-1 RID (Homo sapiens) [2] = biological target: SRC-1 RID (Homo sapiens) (UniProt Q15788); conditions: cited from earlier work
SRC-1 RID (Homo sapiens) [3] = biological target: SRC-1 RID (Homo sapiens) (UniProt Q15788); conditions: cited from earlier work; remark: listed apart in the source
ESR1 = biological target: T1, ESR1 (Homo sapiens, UniProt P03372); experiment: Direct; conditions: read-out: binding affinity (Kd) for the ESR1–Fl-E1 complex; saturation binding curves (data not shown)
T1 sequence (P03372 311-547 limits assumed): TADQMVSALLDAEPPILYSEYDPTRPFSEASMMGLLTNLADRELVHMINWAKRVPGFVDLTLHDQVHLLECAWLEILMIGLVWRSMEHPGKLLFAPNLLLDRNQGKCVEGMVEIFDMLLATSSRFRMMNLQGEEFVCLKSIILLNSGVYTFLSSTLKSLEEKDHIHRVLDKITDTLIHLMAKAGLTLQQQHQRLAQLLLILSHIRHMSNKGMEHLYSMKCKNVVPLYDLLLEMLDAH

[4] = biological target: T2, human estrogen receptor alpha ligand binding domain (ESR1-LBD) (Homo sapiens, UniProt P03372); experiment: Fluorescence polarization competitive ligand binding assay; conditions: relative binding affinity calculated from IC50, E2 set at 100%
T2 sequence (P03372 311-547 limits assumed): T1 sequence (P03372 311-547 limits assumed)

[5] = biological target: T3, ESR1 ligand-binding domain (GST-ER LBD) / SRC-3 peptides (Homo sapiens, UniProt P03372); experiment: TR-FRET co-activator peptide recruitment assay, SRC-3 peptides; type: biochemical; conditions: all SRC-3 peptides tested; listed as BPA
T3 sequence (P03372 311-547 limits assumed): T1 sequence (P03372 311-547 limits assumed)

Chain of ESR1 (P03372 whole entry): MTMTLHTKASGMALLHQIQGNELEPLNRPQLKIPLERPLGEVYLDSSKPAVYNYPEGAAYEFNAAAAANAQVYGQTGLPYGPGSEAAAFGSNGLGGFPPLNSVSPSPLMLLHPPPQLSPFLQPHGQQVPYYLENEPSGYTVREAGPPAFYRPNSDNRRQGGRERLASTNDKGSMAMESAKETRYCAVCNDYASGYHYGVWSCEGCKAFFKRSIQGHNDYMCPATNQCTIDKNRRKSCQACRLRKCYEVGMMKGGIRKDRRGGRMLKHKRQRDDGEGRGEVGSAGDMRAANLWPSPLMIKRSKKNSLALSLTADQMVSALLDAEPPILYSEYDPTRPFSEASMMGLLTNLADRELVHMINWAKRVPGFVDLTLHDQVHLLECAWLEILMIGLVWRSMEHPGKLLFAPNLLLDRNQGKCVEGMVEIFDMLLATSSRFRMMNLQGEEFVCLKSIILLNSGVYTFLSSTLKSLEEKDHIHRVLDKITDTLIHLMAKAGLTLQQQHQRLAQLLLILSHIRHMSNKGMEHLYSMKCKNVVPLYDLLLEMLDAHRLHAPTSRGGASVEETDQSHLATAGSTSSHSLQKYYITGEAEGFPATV
Chain of SRC-1 RID (Homo sapiens) (Q15788 570-780): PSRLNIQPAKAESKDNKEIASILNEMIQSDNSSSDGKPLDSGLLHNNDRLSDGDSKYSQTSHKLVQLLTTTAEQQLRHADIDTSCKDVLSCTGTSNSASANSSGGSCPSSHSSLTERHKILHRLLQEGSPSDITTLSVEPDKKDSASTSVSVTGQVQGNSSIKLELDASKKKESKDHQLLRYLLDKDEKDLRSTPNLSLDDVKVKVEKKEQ

Work on SRC-1(2) peptide yielded an EC50 of 17β-estradiol for recruitment of the peptide [1] of 5.08 nM and an EC50 of bisphenol-A for recruitment of the peptide [1] of 32.3 nM.
For ESR1 (from UniProt P03372), the Kd (SRC-1 RID (Homo sapiens) [2]) is given as 21 nM and the Kd (SRC-1 RID (Homo sapiens) [3]) is given as 104 nM.
SRC-3(2) peptide showed an EC50 of 17β-estradiol for recruitment of the peptide [1] of 7.19 nM.
Compound `CC12CCC3c4ccc(O)cc4CCC3C1CCC2=NNC(=S)Nc1ccc2c(c1)C(=O)OC21c2ccc(O)cc2Oc2cc(O)ccc21` (stereo not shown) [Fl-E1] has a Kd (ESR1) of 2.3 nM.
In the case of `CC(C)(c1ccc(O)cc1)c1ccc(O)cc1` [Bisphenol-A, bisphenol-A], the RBA [4] is reported as 0.29% and the “recruitment of SRC-3 peptides to ESR1 (in words)” value [5] is reported as “failed to induce interaction of the receptor with SRC-3 peptides; also recorded: failed to recruit any of the SRC-3 peptides”.
Work on SRC-3(3) peptide yielded an EC50 of 17β-estradiol for recruitment of the peptide [1] of 2.74 nM.
With SRC-1(1) peptide the EC50 of 17β-estradiol for recruitment of the peptide [1] was 8.44 nM.
